B1: Enterobactin synthase component B (Escherichia coli (strain K12)), P0ADI4 (parent)
chain: MAIPKLQAYALPESHDIPQNKVDWAFEPQRAALLIHDMQDYFVSFWGENCPMMEQVIANIAALRDYCKQHNIPVYYTAQPKEQSDEDRALLNDMWGPGLTRSPEQQKVVDRLTPDADDTVLVKWRYSAFHRSPLEQMLKESGRNQLIITGVYAHIGCMTTATDAFMRDIKPFMVADALADFSRDEHLMSLKYVAGRSGRVVMTEELLPAPIPASKAALREVILPLLDESDEPFDDDNLIDYGLDSVRMMALAARWRKVHGDIDFVMLAKNPTIDAWWKLLSREVK
partner: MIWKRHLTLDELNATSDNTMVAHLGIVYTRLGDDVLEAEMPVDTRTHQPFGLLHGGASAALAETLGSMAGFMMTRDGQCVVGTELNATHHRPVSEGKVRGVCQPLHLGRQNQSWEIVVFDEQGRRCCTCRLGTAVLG

Variants of: B1
Conditions: with enth_ecoli entH
For MAIPKLQAYALPESHDIPQNKVDWAFEPQRAALLIHDMQDYFVSFWGENCPMMEQVIANIAALRDYCKQHNIPVYYTAQPKEQSDEDRALLNDMWGPGLTRSPEQQKVVDRLTPDADDTVLVKWRYSAFHRSPLEQMLKESGRNQLIITGVYAHIGCMTTATDAFMRDIKPFMVADALADFSRDEHLMSLKYVAGRSGRVVMTEELLPAPIPASKAALREVILPLLDESDEPFDDDNLIDYGLDAVRMMALAARWRKVHGDIDFVMLAKNPTIDAWWKLLSREVK [S245A], the “effect of a mutation on the interaction” value was “decreasing interaction strength”.

From IntAct's records for PubMed 17675380
